Assay [1] deals with T1, myosin light chain (chicken) (UniProt P02612).
T1 sequence: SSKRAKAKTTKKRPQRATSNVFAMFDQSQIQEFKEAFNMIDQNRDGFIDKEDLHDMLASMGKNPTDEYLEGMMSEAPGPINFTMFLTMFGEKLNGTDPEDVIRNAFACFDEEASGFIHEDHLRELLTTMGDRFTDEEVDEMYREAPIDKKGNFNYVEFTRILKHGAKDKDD

The target in assay [2] is bovine Rho-kinase (bovine).
Assay [3] deals with bovine Rho-kinase (bovine). The source holds these as a separate data set.
The target in assay [4] is bovine Rho-kinase (bovine). This is another data set of the same source.

myosin light chain kinase, sequence (P11799 935-1906 limits assumed): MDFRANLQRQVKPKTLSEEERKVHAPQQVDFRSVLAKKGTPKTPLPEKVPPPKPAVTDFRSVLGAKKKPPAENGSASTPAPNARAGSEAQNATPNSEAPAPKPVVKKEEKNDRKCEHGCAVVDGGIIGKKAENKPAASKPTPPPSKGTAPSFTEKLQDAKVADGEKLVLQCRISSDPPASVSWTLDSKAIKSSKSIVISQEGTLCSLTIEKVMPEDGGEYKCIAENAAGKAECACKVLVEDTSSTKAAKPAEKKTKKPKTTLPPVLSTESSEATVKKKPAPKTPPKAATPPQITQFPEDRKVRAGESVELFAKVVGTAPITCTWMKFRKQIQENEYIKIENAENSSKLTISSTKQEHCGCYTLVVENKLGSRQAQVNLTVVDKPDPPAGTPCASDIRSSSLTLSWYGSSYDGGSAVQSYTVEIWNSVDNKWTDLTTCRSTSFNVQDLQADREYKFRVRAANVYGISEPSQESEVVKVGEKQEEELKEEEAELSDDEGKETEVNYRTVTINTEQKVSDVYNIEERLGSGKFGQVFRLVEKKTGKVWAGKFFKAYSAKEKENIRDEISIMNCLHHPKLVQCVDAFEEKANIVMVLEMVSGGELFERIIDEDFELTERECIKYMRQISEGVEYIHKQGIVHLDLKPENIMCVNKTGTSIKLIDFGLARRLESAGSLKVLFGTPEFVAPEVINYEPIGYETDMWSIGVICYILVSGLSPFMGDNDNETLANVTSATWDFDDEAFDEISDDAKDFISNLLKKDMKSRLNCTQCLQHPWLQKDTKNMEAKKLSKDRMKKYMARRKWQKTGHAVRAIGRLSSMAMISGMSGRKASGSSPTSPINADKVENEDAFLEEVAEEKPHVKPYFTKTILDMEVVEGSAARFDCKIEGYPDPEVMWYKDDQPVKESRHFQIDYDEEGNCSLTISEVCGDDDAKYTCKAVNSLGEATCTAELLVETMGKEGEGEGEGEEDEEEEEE

In the case of bovine Rho-kinase (enzyme), in assay [1], the apparent Km for myosin light chain, in the absence of GTPγS·GST-RhoA worked out at 12.6 µM and the apparent Km for myosin light chain, in the presence of GTPγS·GST-RhoA was determined as 2.6 µM. In the assay with intact myosin (chicken), this substance returned a phosphorylation of the myosin light chain of intact myosin (mol of phosphate into 1 mol) of 1.
As for “myosin light chain kinase (from UniProt P11799-2) (enzyme)”, in assay [1], the apparent Km for myosin light chain stood at 52.1 µM.
On to GTPγS·GST-RhoA (from UniProt P61586), for which the phosphorylation of MBS-C by bovine Rho-kinase in assay [2] worked out at 5 times. This substance also gave an autophosphorylation of bovine Rho-kinase in assay [3] of 2 times. This substance showed a phosphorylation of rat myosin-binding subunit by bovine Rho-kinase in assay [4] of 15 times.

Source of the values: patent US5906819.
